Test results from the RNAGym collection of RNA variant scans (doi:10.7554/elife.80360).

B1: HDV Ribozyme (parent)
chain: GGCCGGCAUGGUCCCAGCCUCCUCGCUGGCGCCGGCUGGGCAACAUUCCGAGGGGACCGUCCCCUCGGUAAUGGCGAAUGGGACCCA

Variants of: B1
Assay: self-cleavage, relative activity (ratio to wild type); higher = more cleavage; co-transcriptional

Variant	self-cleavage
GGCCGGCAUGGUCCCAGCCUCCUGGCUGGCGCCGGCUGGGCAACAUUCCGAGGGGACCGUCCCCUCGGUAAUGGCGCAUGGGACCCA [C24G A77C]	0.0386
GGCCGGCAUGGUCCCAGCCUCCUGGCUGGCGCCGGCUGGGCAACAUUCCGAGGGGACCGUCCCCUCGGUAAUGGCGUAUGGGACCCA [C24G A77U]	0.111
GGCCGGCAUGGUCCCAGCCUCCUGGCUGGCGCCGGCUGGGCAACAUUCCGAGGGGACCGUCCCCUCGGUAAUGGCGGAUGGGACCCA [C24G A77G]	0.298
GGCCGGCAUGGUCCCAGCCUCCUGGCUGGCGCCGGCUGGGCAACAUUCCGAGGGGACCGUCCCCUCGGUAUUGGCGAAUGGGACCCA [C24G A71U]	0.106
GGCCGGCAUGGUCCCAGCCUCCUGGCUGGCGCCGGCUGGGCAACAUUCCGAGGGGACCGUCCCCUCGGUAGUGGCGAAUGGGACCCA [C24G A71G]	0.102
GGCCGGCAUGGUCCCAGCCUCCUGGCUGGCGCCGGCUGGGCAACAUUCCGAGGGGACCGUCCCCUCGGUACUGGCGAAUGGGACCCA [C24G A71C]	0
GGCCGGCAUGGUCCCAGCCUCCUGGCUGGCGCCGGCUGGGCAACAUUCCGAGGGGUCCGUCCCCUCGGUAAUGGCGAAUGGGACCCA [C24G A56U]	0.0831
GGCCGGCAUGGUCCCAGCCUCCUGGCUGGAGCCGGCUGGGCAACAUUCCGAGGGGACCGUCCCCUCGGUAAUGGCGAAUGGGACCCA [C24G C30A]	0.0898
GGCCGGCAUGGUCCCAGCCUCCUGGCUGGUGCCGGCUGGGCAACAUUCCGAGGGGACCGUCCCCUCGGUAAUGGCGAAUGGGACCCA [C24G C30U]	0.0712
GGCCGGCAUGGUCCCAGCCUCCUAGCUGGCGCCGGCUGGGCAACAAUCCGAGGGGACCGUCCCCUCGGUAAUGGCGAAUGGGACCCA [C24A U46A]	0.213
GGCCGGCAUGGUCCCAGCCUCCUGGCUGGCGCCGGCUGGGCAACAUUCCGAGGGGACCGUCCCCUCGGUAAUGGAGAAUGGGACCCA [C24G C75A]	0.0277
GGCCGGCAUGGUCCCAGCCUCCUAGCUGGCGCCGGCUGGGCAACAUUCCGAGGGGACCGUCCCCUCGGUAACGGCGAAUGGGACCCA [C24A U72C]	0.253
GGCCGGCAUGGUCCCAGCCUCCUAGCUGGCGCCGGCUGGGCAACAUUCCGAGGGGACCGUCCCCUCGGUAAGGGCGAAUGGGACCCA [C24A U72G]	0.364
GGCCGGCAUGGUCCCAGCCUCCUGGCUGGCGUCGGCUGGGCAACAUUCCGAGGGGACCGUCCCCUCGGUAAUGGCGAAUGGGACCCA [C24G C32U]	0.0773
GGCCGGCAUGGUCCCAGCCUCCUGGCUGGCGGCGGCUGGGCAACAUUCCGAGGGGACCGUCCCCUCGGUAAUGGCGAAUGGGACCCA [C24G C32G]	0.0504
GGCCGGCAUGGUCCCAGCCUCCUGGCUGGCGACGGCUGGGCAACAUUCCGAGGGGACCGUCCCCUCGGUAAUGGCGAAUGGGACCCA [C24G C32A]	0

Variant	self-cleavage
GGCCGGCAUGGUCCCAGCCUCCUAGCUGGCGCCGGCUGGGCAACAUUCCGAGGGGACCGUCCCCUCGGUAAUGGCGAAGGGGACCCA [C24A U79G]	0.312
GGCCGGCAUGGUCCCAGCCUCCUAGCUGGCGCCGGCUGGGCAACAUUCCGAGGGGACCGUCCCCUCGGUAAUGGCGAACGGGACCCA [C24A U79C]	0.12
GGCCGGCAUGGUCCCAGCCUCCUAGCGGGCGCCGGCUGGGCAACAUUCCGAGGGGACCGUCCCCUCGGUAAUGGCGAAUGGGACCCA [C24A U27G]	0.415
GGCCGGCAUGGUCCCAGCCUCCUGGCUGGCGCCGGCUGGGCAACAUUCCGAGGGGACCGUCCCCUCGGUAAUGGCGAAUGGGACCCG [C24G A87G]	0.137
GGCCGGCAUGGUCCCAGCCUCCUGGCUGGCGCCGGCUGGGCAACAUUCCGAGGGGACCGUCCCCUCGGUAAUGGCGAAUGGGACCCC [C24G A87C]	0.128
GGCCGGCAUGGUCCCAGCCUCCUGGCUGGCGCCGGCUGGGCAACAUUCCGAGGGGACCGUCCCCUCGGUAAUGGCGAAUGGGACCCU [C24G A87U]	0.0902
GGCCGGCAUGGUCCCAGCCUCCUGGCUGGCGCCGGCUGGGCAACCUUCCGAGGGGACCGUCCCCUCGGUAAUGGCGAAUGGGACCCA [C24G A45C]	0.0302
GGCCGGCAUGGUCCCAGCCUCCUGGCUGGCGCCGGCUGGGCAACGUUCCGAGGGGACCGUCCCCUCGGUAAUGGCGAAUGGGACCCA [C24G A45G]	0.222
GGCCGGCAUGGUCCCAGCCUCCUGGCUGGCGCCGGCUGGGCAACAUUCCGAGGGGACCGUCCCCUCGGUAAUGGCGAAUGGGUCCCA [C24G A83U]	0.141
GGCCGGCAUGGUCCCAGCCUCCUGGCUGGCGCCGGCUGGGCAACAUUCCGAGGGGACCGUCCCCUCGGUAAUGGCGAAUGGGCCCCA [C24G A83C]	0.0923
GGCCGGCAUGGUCCCAGCCUCCUGGCUGGCGCCGGCUGGGCAACAUUCCGAGGGGACCGUCCCCUCGGUAAUGGCGACUGGGACCCA [C24G A78C]	0.0241
GGCCGGCAUGGUCCCAGCCUCCUGGCUGGCGCCGGCUGGGCAACAUUCCGAGGGGACUGUCCCCUCGGUAAUGGCGAAUGGGACCCA [C24G C58U]	0.117
GGCCGGCAUGGUCCCAGCCUCCUGGCUGGCGCCGGCUGGGCAACAUUCCGAGGGGACAGUCCCCUCGGUAAUGGCGAAUGGGACCCA [C24G C58A]	0.121
GGCCGGCAUGGUCCCAGCCUCCUGGCUGGCGCCGGCUGGGCAACAUUCCGAGGGGACGGUCCCCUCGGUAAUGGCGAAUGGGACCCA [C24G C58G]	0.108
GGCCGGCAUGGUCCCAGCCUCCUGGCUGGCGCCGGCUGGGCAACAUUCCGAGGGGAACGUCCCCUCGGUAAUGGCGAAUGGGACCCA [C24G C57A]	0.0432
GGCCGGCAUGGUCCCAGCCUCCUGGCUGGCGCCGGCUGGGCAGCAUUCCGAGGGGACCGUCCCCUCGGUAAUGGCGAAUGGGACCCA [C24G A43G]	0.0354
